Assays:
[1] = target: HLA-A*02:02; test: IEDB peptide-MHC binding, cellular MHC/competitive/fluorescence; ≥ and ≤ were set here for values at or beyond the usual limits of such assays; conditions: source organism: Vaccinia virus WR
[2] = target: HLA-A*02:06; test: IEDB peptide-MHC binding, purified MHC/competitive/radioactivity; ≥ and ≤ were set here for values at or beyond the usual limits of such assays; conditions: source organism: Vaccinia virus WR
[3] = target: HLA-A*68:02; test: as above; conditions: source organism: Vaccinia virus WR
[4] = target: HLA-A*02:03; test: as above
[5] = target: HLA-A*02:06; test: IEDB peptide-MHC binding, cellular MHC/competitive/fluorescence; ≥ and ≤ were set here for values at or beyond the usual limits of such assays
[6] = target: HLA-A*68:02; test: as above
[7] = target: HLA-A*02:02; test: IEDB peptide-MHC binding, purified MHC/competitive/radioactivity; ≥ and ≤ were set here for values at or beyond the usual limits of such assays
[8] = target: HLA-A*02:01; test: as above
[9] = target: HLA-A*02:01; test: IEDB peptide-MHC binding, cellular MHC/competitive/fluorescence; ≥ and ≤ were set here for values at or beyond the usual limits of such assays
[10] = source organism: Vaccinia virus WR
[11] = source organism: Mammarenavirus guanaritoense
[12] = source organism: Influenza A virus
[13] = source organism: Mammarenavirus brazilense

| Sequence | IC50 [4, 10] [µM] | IC50 [5, 10] [µM] | IC50 [6, 10] [µM] | IC50 [7, 10] [µM] | IC50 [8, 10] [µM] | IC50 [9, 10] [µM] | also measured |
| --- | --- | --- | --- | --- | --- | --- | --- |
| NTFVNFNSV | 0.1 |  |  |  |  |  | IC50 [1]: 5.02 µM; IC50 [2]: 0.00035 µM; IC50 [3]: 0.0058 µM |
| QLSNNKYVL | 4.94 | 10.7 | 12.5 | 0.079 | 1.81 |  |  |
| FMNDLQVSR |  |  |  |  |  |  | IC50 [5, 11]: 33.6 µM; IC50 [6, 11]: 26.3 µM; IC50 [9, 11]: 6.25 µM; IC50 [7, 11]: 0.249 µM; IC50 [4, 11]: 0.915 µM |
| TLNEYKQLYT | 0.773 | ≥ 70 | ≥ 70 | 0.144 |  | 11.5 |  |
| TLLNETAKVI | 2.13 | 8.54 | 6.34 | 2.86 |  | 16.9 |  |
| AAFEDLRLL |  |  |  |  |  |  | IC50 [5, 12]: 6.19 µM; IC50 [6, 12]: 18.1 µM; IC50 [9, 12]: 15.5 µM; IC50 [7, 12]: 4.45 µM; IC50 [4, 12]: 1.47 µM |
| RTLFQQMRDVL |  |  |  |  |  |  | IC50 [5, 12]: ≥ 70 µM; IC50 [6, 12]: ≥ 70 µM; IC50 [9, 12]: 13.7 µM; IC50 [7, 12]: 1.89 µM; IC50 [4, 12]: 3.83 µM |
| LVDKEDTDIV | 1.68 | 27.2 | 56.8 | 3.7 |  | ≥ 70 |  |
| KLFKRERDAI | 0.12 | 14.2 | ≥ 70 | 0.092 | 1.49 |  |  |
| KCFGNTALA |  |  |  |  |  |  | IC50 [5, 13]: ≥ 70 µM; IC50 [6, 13]: 25.9 µM; IC50 [7, 13]: 0.031 µM; IC50 [4, 13]: 1.09 µM; IC50 [8, 13]: 3.33 µM |
| DVDMDFDLNI | 1.52 | 5.83 | 8.84 | 2.04 | 4.56 |  |  |
| NLVQYRILPM | 1.33 | 24.5 | ≥ 70 | 3.99 | 1.44 |  |  |
| IINSVSIIL | 2.9 | 25.9 | 29.9 | 0.705 | 2.09 |  |  |
| PASKKESVI | 1.76 | 10.3 | ≥ 70 | 1.35 |  | 18.8 |  |
| AMHDKKIDIL | 1.18 | ≥ 70 | ≥ 70 | 0.387 |  | 8.94 |  |
| SVQLSNNKYV | 0.82 | 8.83 | 11.3 | 1.22 |  | 55 |  |
| LINLVQYRIL | 2.25 | 15.9 | 29.9 | 2.12 | 2.22 |  |  |

| Sequence | IC50 [4, 10] [µM] | IC50 [5, 10] [µM] | IC50 [6, 10] [µM] | IC50 [7, 10] [µM] | IC50 [8, 10] [µM] | IC50 [9, 10] [µM] | also measured |
| --- | --- | --- | --- | --- | --- | --- | --- |
| TTQIIKLLPFA |  |  |  |  |  |  | IC50 [5, 12]: 11.6 µM; IC50 [6, 12]: 8.22 µM; IC50 [9, 12]: 5.95 µM; IC50 [7, 12]: 2.19 µM; IC50 [4, 12]: 3.43 µM |
| ITFLRPVLKA | 0.718 | 18 | 21.4 | 3.16 |  | ≥ 70 |  |
| GLTTHCTKL | 0.03 | 31.6 | ≥ 70 | 0.1 | 0.613 |  |  |
| AIRAGYSIV | 0.00021 | 8.06 | 15.4 | 1.2 |  | 5.01 |  |
| SLKRFTHTTA | 0.726 | 7.31 | 6.08 | 0.884 | 4.54 |  |  |
| VLQQNNSFII | 1.03 | 9.63 | 16.6 | 0.665 | 0.709 |  |  |
| KQNKFGDSPL | 0.216 | 5.08 | 31.6 | 0.09 |  | 5.55 |  |
| SMKGENVFI | 0.019 | 13.7 | 9.34 | 0.0055 | 0.611 |  |  |
| VLQQNNSFI | 0.249 | 8.69 | 16.3 | 0.1 | 0.234 |  |  |
| LITNTKSDNI | 3.08 | 18.8 | 20.7 | 2.25 |  | ≥ 70 |  |
| EIDVSEVKTL | 2.24 | 56.1 | 8.12 | 4.95 |  | ≥ 70 |  |
| HLRASTTENA | 0.038 | ≥ 70 | 36.3 | 0.488 |  | 20.1 |  |
| NVKSKLLWFL | 0.633 | 31.1 | 7.3 | 2.29 |  | 33.2 |  |
| LLENKSLTIL | 0.541 | 7.43 | 21.3 | 0.185 | 1.15 |  |  |
| WLTPFEKEFT | 1.55 | 30.8 | ≥ 70 | 2.37 |  | 15.7 |  |
| GLSASDVDM | 3.54 | 13.8 | ≥ 70 | 0.497 | 1.72 |  |  |

— the Immune Epitope Database (IEDB)
